According to US20140212431A1 (Genentech, published 2014):

How the values were obtained:
[1] = molecular target: T1, recombinant human PCSK9 with a histidine (His)8 C-terminal tag (human, UniProt Q8NBP7 31-692, biotinylated in vitro (EZ-link Sulfo-NHS-biotinylation kit) where the assay names biotinylated PCSK9); assay: cell-based or functional assay
[2] = molecular target: T1, recombinant human PCSK9 with a …; assay: SPR (Biacore 3000), EGF-Fc captured by anti-human Fc, PCSK9 injected, 1 mM CaCl2; SPR, 1 mM Ca^2+
[3] = molecular target: T1, recombinant human PCSK9 with a …; assay: biolayer interferometry (Octet RED 384), EGF-Fc on Fc biosensor, PCSK9 0-500 nM, 1 mM CaCl2, steady state fit; biolayer interferometry, steady state, 1 mM CaCl2

EC50: concentration that restored LDLR levels on the HepG2 cell surface to 50% of control [1]: 11000 nM
Kd [2]: 935 nM
Kd [3]: 900 nM
B1: EGFwt-Fc fusion protein (Fc fusion)
chain: not shown
notes: A single EGF-Fc protein contains two EGF domains; also called EGF-Fc (WT); EGF(A)-Fc; not shown: Fc domain of human IgG1 (C222-K443)
